Target: HIV-1 integrase wild type (HIV-1) (UniProt P12497)
Experiment: filter binding
Settings: Filter binding: 20 mM Tris-HCl pH 7.5, 200 mM NaCl, 6 mM MgCl2, 1 mM DTT, 0.1 mg/mL BSA, room temperature, 10 min

In the case of HIV-1 TAR (1-57), the Kd is reported as over 5 µM.

From paper PMC7005942
